From patent US12234463B2, “Engineered microorganisms with G3P → 3PG enzyme and/or fructose-1,6-bisphosphatase including those having synthetic or enhanced methylotrophy” (Genomatica, Inc., priority 2018, dated 2025)

Tests used:
[1] = substrate: NC(=O)c1ccc[n+]([C@@H]2O[C@H](COP(=O)(O)OP(=O)(O)OC[C@H]3O[C@@H](n4cnc5c(N)ncnc54)[C@H](OP(=O)(O)O)[C@@H]3O)[C@@H](O)[C@H]2O)c1; assay: purified protein, by the assay type; settings: other: fixed G3P; NADP varied
[2] = substrate: O=C[C@H](O)COP(=O)(O)O; assay: GapN vs. GapA kinetic comparison: catalytic constants of GapA (Table 18); type: biochemical, E. coli; settings: other: fixed NAD; G3P varied

B1: Bacillus methanolicus MGA3 GapN (NADP-dependent glyceraldehyde-3-phosphate dehydrogenase), cds 10663A (Bacillus methanolicus MGA3) (protein)
chain: MQVLEKDFKFLLNGEWSFSSSNQFINIYSPSTGEVVGRVPAMTKDEIDKAVAGARQAQKKWEKLAVSERAKILHAWADELVKMIDVIAPMIMNEVGKNISTARKEVTRTAEIIRYTAEEGVRIHGEFINGGSLDADSSIKTAIVEKKPLGVILAISPFNYPINLAATKIAPALIAGNAVVFKPATQGAISGLLMIQALENAGLPKGLVNTVTGKGSEIGDYIITHPFIDMISFTGGTGTGQNIARKASMIPLVLELGGKDPAIVLEDADLELAATEIVSGAFSYSGQRCTAIKRVLVLKDVAAPLIEKIKEKVEKLTVGRPEDDADITPLIDESSADFVQGLIDDALAKGASLITGNKREKNLIYPTVLSNVTKDMKVAWEEPFGPVLPCIIVDSVEEAIEIANESEFGLQASVFTSNIEKAFTIASSLDVGSVQINGRTERGPDHFPFSAVKNSGLGSQGIRQSIISMMRDKVTVINLKK
In the case of B1, the Km [1] is reported as 0.27 ± 0.04 mM, the kcat [1] is reported as 8.2 s⁻¹ and the kcat/Km [1] is reported as 30000 M⁻¹ s⁻¹.

B2: E. coli GapA (NAD-dependent glyceraldehyde-3-phosphate dehydrogenase A; P0A9B2) (Escherichia coli K-12) (protein)
chain: MTIKVGINGFGRIGRIVFRAAQKRSDIEIVAINDLLDADYMAYMLKYDSTHGRFDGTVEVKDGHLIVNGKKIRVTAERDPANLKWDEVGVDVVAEATGLFLTDETARKHITAGAKKVVMTGPSKDNTPMFVKGANFDKYAGQDIVSNASCTTNCLAPLAKVINDNFGIIEGLMTTVHATTATQKTVDGPSHKDWRGGRGASQNIIPSSTGAAKAVGKVLPELNGKLTGMAFRVPTPNVSVVDLTVRLEKAATYEQIKAAVKAAAEGEMKGVLGYTEDDVVSTDFNGEVCTSVFDAKAGIALNDNFVKLVSWYDNETGYSNKVLDLIAHISK
notes: NAD-dependent; kinetic assay with G3P
With B2 the Km [2] was 2.0 ± 0.3 mM, the kcat [2] was 19 ± 1 s⁻¹ and the kcat/Km [2] was 9500 M⁻¹ s⁻¹.

B3: Bacillus methanolicus PB1 GapN (NADP-dependent glyceraldehyde-3-phosphate dehydrogenase), cds 10662A (Bacillus methanolicus PB1) (protein)
chain: MQVLEKDHKFLLNGKWCYSSSNEFINIYSPSTGEIVGRVPAMTKDEIDKAVAGACQAQKNWEKLAVSDRAKILHAWADELVKMIDVIAPMIMNEVGKNISTAKREVIRTADIIRYTAEEGVRIHGEFINGGSLDADSSKKTAIVEKKPLGVILAISPFNYPINLAATKIAPALIAGNAVVFKPATQGAISGLLMIQALENAGLPEGLVNTVTGKGSEIGDYIITHPFIDMISFTGGTGTGQNIARKASMIPLVLELGGKDPAIVLEDADLELAAAEIVSGAFSYSGQRCTAIKRVIVLKDAAAPLIEKIKEKVEKLTVGKPEDDADITPLIDESSADFVQGLIDDALAKGATLITGNKREKNLIYPTVLSNVTKDMKVAWEEPFGPVLPCIIVDSAEEAIEIANESEFGLQASVFTTNIEKAFSIASSLDVGSVQINGRTERGPDHFPFSAVKNSGLGSQGIRQSIISMMRDKVTVINLKR
B3 gave a Km [1] of 0.32 ± 0.07 mM, a kcat [1] of 9.7 s⁻¹ and a kcat/Km [1] of 31000 M⁻¹ s⁻¹.
